In the data set the target is HoxB13 (CIX-1, Isl-3) (Rattus norvegicus). As to the kind of experiment: EMSA; described as high affinity; competed by 50 ng unlabeled FLAT; 50 mM KCl, 20 mM HEPES pH 7.8, 1 mM EDTA, 20% glycerol, room temperature. The settings on record: tags: GST fusion (pGEX-3X) expressed in E. coli BL21, GST removed by factor Xa; GATC 5' overhangs filled in. As for the experimental part:
For gel shift assays, the labeled fragment was incubated 15 minutes at room temperature with buffer alone (50 mM KCI, 20 mM HEPES pH 7.8, 1 mM EDTA, 20% glycerol, 1 mM DTt and 1 mM PMSF), 1 μl bacterially expressed HoxB13 (see Example 3; "rCIX-1" in FIG. 4), 1 μl HoxB13 and 50 ng unlabeled FLAT DNA ("rCIX-1+50 ng FLAT" in FIG. 4), 5 μg Hela cell nuclear extract, 5 μg RIN cell nuclear extract, 5 μg RIN extract and 50 ng FLAT, 5 μg HeLa extract and 50 ng FLAT (respectively, as shown in FIG. 4). The samples were then run on a 5% acrylamide gel in 0.5× TBE.

Sequence of HoxB13 (CIX-1, Isl-3) (Rattus norvegicus) (chain, as listed by the source): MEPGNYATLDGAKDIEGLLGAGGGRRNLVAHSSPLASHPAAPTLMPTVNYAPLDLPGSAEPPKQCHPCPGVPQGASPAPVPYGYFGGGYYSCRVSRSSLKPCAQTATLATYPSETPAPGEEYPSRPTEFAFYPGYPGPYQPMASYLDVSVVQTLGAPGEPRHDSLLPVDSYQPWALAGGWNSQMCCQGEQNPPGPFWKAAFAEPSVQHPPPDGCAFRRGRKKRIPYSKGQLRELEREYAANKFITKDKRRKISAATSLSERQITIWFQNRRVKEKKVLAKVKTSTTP

B1: FLAT element probe (dsDNA)
DNA 1: GATCCCCTTGTTAATAATCTAATTACCCTAGG
DNA 2: GATCCCTAGGGTAATTAGATTATTAACAAGGG
For the molecule B1, the binding result is listed as “binds”.
